In the supplement of paper PMC12764529:
± gives the half width of the 95% confidence interval.

Assays:
[1] = folding stability dG unfold (combined trypsin and chymotrypsin); higher = more stable
Method in brief: (§1)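 How resistant each design was to proteolysis was captured as K50, inferred by Bayesian fitting of sequencing counts. Unfolding free energy was then derived relative to a sequence-predicted unfolded-state K50 and a shared folded-state K50, per protease or combined. Digestion used trypsin and chymotrypsin at 11 threefold-diluted concentrations plus a no-protease condition, on mini-proteins under 80 residues without cysteine in a PA-tagged cDNA display construct. Designs were kept only when AlphaFold2 dimer inter-PAE was above 15.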

[2] = folding stability dG unfold from chymotrypsin proteolysis; higher = more stable
Method in brief: as §1

[3] = folding stability dG unfold from trypsin proteolysis; higher = more stable
Method in brief: as §1

Sequence: SAGGSAGGSAGGSAGRLVKETKTTSYIFTFKKPTGEPISKKTSFVTSSLILLSDPSKISSAGGSAGGSAGGS [r4_450_JUSTAS]
- folding stability dG unfold [1]: 4.6 ± 0.44 kcal/mol
- folding stability dG unfold [2]: 4.6 ± 0.39 kcal/mol
- folding stability dG unfold [3]: 4.18 ± 0.37 kcal/mol

Sequence: SAGGSAGGSAGGSAKIDLPFPAEITEIRPRPDGSVEIRLSFPTYTVTAIIPPNGIKIYGSAGGSAGGSAGGS [r4_280_TrMRF]
- folding stability dG unfold [1]: 0.487 ± 0.065 kcal/mol
- folding stability dG unfold [2]: -0.0211 ± 0.11 kcal/mol
- folding stability dG unfold [3]: 0.855 ± 0.017 kcal/mol

Sequence: SAGGSAGGSAGGSAPPNLIIFIHVEIKIKEPKFDPGNGKPEYEIEITDIPIQIMPPDDLSAGGSAGGSAGGS [r4_417_TrROS]
- folding stability dG unfold [1]: 2.26 ± 0.11 kcal/mol
- folding stability dG unfold [2]: 2.39 ± 0.088 kcal/mol
- folding stability dG unfold [3]: 2.15 ± 0.16 kcal/mol

Sequence: SAGGSAGGSAGGSAPYPNTVVPTPLLSSVVTETTVEFFPDGTVVPVSTTTTVVLVYRLLSAGGSAGGSAGGS [r4_288_JUSTAS]
- folding stability dG unfold [1]: 4.53 ± 0.15 kcal/mol
- folding stability dG unfold [2]: 4.75 ± 0.12 kcal/mol
- folding stability dG unfold [3]: 3.54 ± 0.13 kcal/mol

Sequence: SAGGSAGGSAGGSDKGQPRVEIPMPFFMPNPNYVIRITMEIDLDPNGQIREIDVEVYKFSAGGSAGGSAGGS [r4_75_TrROS]
- folding stability dG unfold [1]: 4.08 ± 0.14 kcal/mol
- folding stability dG unfold [2]: 4.67 ± 0.1 kcal/mol
- folding stability dG unfold [3]: 3.21 ± 0.096 kcal/mol

Sequence: SAGGSAGGSAGGSDVKIEVERGPNGYYTVTIELNGKPKIIPFPPGRPPEDAKDEIKDLLSAGGSAGGSAGGS [r4_7_TrROS]
- folding stability dG unfold [1]: 0.335 ± 0.12 kcal/mol
- folding stability dG unfold [2]: -0.279 ± 0.13 kcal/mol
- folding stability dG unfold [3]: 0.554 ± 0.058 kcal/mol

Sequence: SAGGSAGGSAGGSDYIMFRIPAPPGEKIEIPIPNGWEVEINPQPHNGRWYFMIKIPEDASAGGSAGGSAGGS [r4_360_TrROS]
- folding stability dG unfold [1]: 1.13 ± 0.12 kcal/mol
- folding stability dG unfold [2]: 1.09 ± 0.11 kcal/mol
- folding stability dG unfold [3]: 1.05 ± 0.085 kcal/mol

Sequence: SAGGSAGGSAGGSELIFKTEDGYYVKVKLKNGKTIVFPAENLEELKKLNVEKVEVVPAKSAGGSAGGSAGGS [r4_348_TrROS_Hall]
- folding stability dG unfold [1]: 0.684 ± 0.064 kcal/mol
- folding stability dG unfold [2]: 0.831 ± 0.042 kcal/mol
- folding stability dG unfold [3]: 0.332 ± 0.039 kcal/mol

Sequence: SAGGSAGGSAGGSEVEVLDSRPLPDGHHLVLVRFPDGSYALYRIYPDGSVEVEVFSDDGSAGGSAGGSAGGS [r4_483_TrMRF]
- folding stability dG unfold [1]: 3.81 ± 0.084 kcal/mol
- folding stability dG unfold [2]: 4.205 ± 0.029 kcal/mol
- folding stability dG unfold [3]: 2.47 ± 0.066 kcal/mol

Sequence: SAGGSAGGSAGGSFELVGLVSEFEDENGIPVRVFKAKNPLLGYEFLVVVLPNGEVFFLPSAGGSAGGSAGGS [r10_1123_TrMRF]
- folding stability dG unfold [1]: 2.99 ± 0.089 kcal/mol
- folding stability dG unfold [2]: 3.124 ± 0.014 kcal/mol
- folding stability dG unfold [3]: 2.8 ± 0.053 kcal/mol

Sequence: SAGGSAGGSAGGSFKVTYFPGEKLLAVTFPDGSKKIFKIDDKGNPTIIAVIDPDKGKVLPSAGGSAGGSAGG [r7_659_TrMRF]
- folding stability dG unfold [1]: 2.35 ± 0.051 kcal/mol
- folding stability dG unfold [2]: 2.622 ± 0.02 kcal/mol
- folding stability dG unfold [3]: 1.86 ± 0.034 kcal/mol

Sequence: SAGGSAGGSAGGSGMTLPIPLSELTTEEIRELTKPDEDLVIKTEEDEPVVIPYGEIKPESAGGSAGGSAGGS [r4_382_JUSTAS]
- folding stability dG unfold [1]: 0.204 ± 0.077 kcal/mol
- folding stability dG unfold [2]: -1.05 ± 0.3 kcal/mol
- folding stability dG unfold [3]: 0.694 ± 0.07 kcal/mol

Sequence: SAGGSAGGSAGGSGMTLSVTVLEEKPERLPNGGTIITRTVRIPETGEVIEEVTYEPGALSAGGSAGGSAGGS [r4_94_JUSTAS]
- folding stability dG unfold [1]: -0.092 ± 0.085 kcal/mol
- folding stability dG unfold [2]: 0.0529 ± 0.058 kcal/mol
- folding stability dG unfold [3]: -0.594 ± 0.17 kcal/mol

Sequence: SAGGSAGGSAGGSGMTPIPLEVLERKVTEYDPKNGKITVEALAILPDGTPVKLKFTVELSAGGSAGGSAGGS [r4_184_JUSTAS]
- folding stability dG unfold [1]: 1.37 ± 0.22 kcal/mol
- folding stability dG unfold [2]: 1.37 ± 0.18 kcal/mol
- folding stability dG unfold [3]: 1.11 ± 0.042 kcal/mol

Sequence: SAGGSAGGSAGGSGPVPVTIKSVTTYPEKDVYKVETVPATPEPITITLSPEELSDVVILSAGGSAGGSAGGS [r4_51_JUSTAS]
- folding stability dG unfold [1]: -0.561 ± 0.19 kcal/mol
- folding stability dG unfold [2]: -0.437 ± 0.2 kcal/mol
- folding stability dG unfold [3]: -1.69 ± 0.57 kcal/mol

Sequence: SAGGSAGGSAGGSGSITITYSSDGDKYSATFTVPDGTVVTVPNMSVDEAKKVAEKFLKSSAGGSAGGSAGGS [r4_383_JUSTAS]
- folding stability dG unfold [1]: 0.659 ± 0.095 kcal/mol
- folding stability dG unfold [2]: 1.08 ± 0.12 kcal/mol
- folding stability dG unfold [3]: -0.389 ± 0.14 kcal/mol

Sequence: SAGGSAGGSAGGSGVSITTTLPVKTTVLQPFNTFENKLLLKEVEKTILTTVTLTLPPLLSAGGSAGGSAGGS [r4_326_JUSTAS]
- folding stability dG unfold [1]: 0.148 ± 0.21 kcal/mol
- folding stability dG unfold [2]: -0.0828 ± 0.29 kcal/mol
- folding stability dG unfold [3]: 0.316 ± 0.068 kcal/mol

Sequence: SAGGSAGGSAGGSIVVETKKNPGPERVVTVKLPDGTPLADVPVSPDEDPEEAVKRALELGSAGGSAGGSAGG [r7_444_JUSTAS]
- folding stability dG unfold [1]: 0.386 ± 0.17 kcal/mol
- folding stability dG unfold [2]: 0.305 ± 0.037 kcal/mol
- folding stability dG unfold [3]: 0.0908 ± 0.071 kcal/mol

Sequence: SAGGSAGGSAGGSKEIKVEVEEKDGKLTVTVTFPDGSKVEIEGMSAEEVEKLVKELAKKSAGGSAGGSAGGS [r4_383_TrROS_Hall]
- folding stability dG unfold [1]: 2.06 ± 0.061 kcal/mol
- folding stability dG unfold [2]: 2.36 ± 0.1 kcal/mol
- folding stability dG unfold [3]: 1.4 ± 0.061 kcal/mol

Sequence: SAGGSAGGSAGGSKIYKLKVNGSVEKLIENLKKAGFKVEILSVYYDPETKELYVLFKISSAGGSAGGSAGGS [r4_315_TrMRF]
- folding stability dG unfold [1]: 4.32 ± 0.079 kcal/mol
- folding stability dG unfold [2]: 4.57 ± 0.068 kcal/mol
- folding stability dG unfold [3]: 3.85 ± 0.1 kcal/mol

Sequence: SAGGSAGGSAGGSKKEKYYLVTRIEVEVNGKKYPLGSKLPKNLPPGAKIKIETRIVKLDSAGGSAGGSAGGS [r4_436_TrROS_Hall]
- folding stability dG unfold [1]: 1.83 ± 0.25 kcal/mol
- folding stability dG unfold [2]: 1.58 ± 0.071 kcal/mol
- folding stability dG unfold [3]: 2.35 ± 0.15 kcal/mol
